Test: soluble fraction after stress (log2 fold change); higher = more stays soluble; pooled small domains, quantitative proteomics
Settings: stress: pH 4
Procedure, shortened: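 Custom libraries of small protein domains were pooled and exposed to pH 4. High-throughput quantitative proteomics then measured the log2 fold change in the amount of each domain still soluble, with higher values meaning more stayed soluble. This soluble-fraction fold change stands for aggregation propensity.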

Compared with “HMTTKYMVLVNWVKEKVRTNELKTGEKLYSEHEFSRMFHMSRQTVRHGISILERENIVERRQGSGTFIKDA”, “HMTTKYVAVHESKDGYWTIASKPSSKEDAEAMLGGTPKNEVGKVVTLEEAKAHKKTLGEEYLYE” is higher in “soluble fraction (log2)” value: -0.223 for the first, no less than 0.43 for the second.

Going from “HMTTMTTGQRIAAKRKEQGLSQENLGEQLGVSRQAIYKWESDASLPDIDKLIALSRLFGVSTDYLLLE” to “HMTTQIPEEVQKRVNQFYEALDEEDYGEAKQILEELEKATAPDHPTLIQMRTRYEFDTMELR”, the “soluble fraction (log2)” value rises from -1.68 to -1.1.

First: HMTTTPAERQRTILRSLNRVDPVSVDALARLTGVSVVTIRRDLSDLASRDLIRRVHGGALLPTR
Second: HMTTYSVDLGDIRAVADSDGKLVELTLHAAVTTHYSHSELADRLNLAFTALREEAQADYETRY
The “soluble fraction (log2)” value of the first is higher: 0.339 for the first, -0.0597 for the second.

Going from “HMTTYTGVVTGSGVNVRSGAGTSYPVVGSKTMGDVVTITETVSADGMIWGKIDIGWISMNYVRM” to “HMTVAQEIEARRATIRSSDPAEMARFIRWLIMEGHTEPAADELKKYAENFPEASATTKQLQALLAAR”, the “soluble fraction (log2)” value rises from -0.434 to 0.147.

“HMTVDIADALRVLGLSDAPDWSDVRAAHRRAIVRTHPDAGGSAGDAARVNQAFDLLRKISGNGERPIPG” and “HMTVDTSELEEMIDDLIKEHPNEWERYSSGEKKVQGFFVGQVMKATSGQADGKAINQILSKRVKS” are within 0.2 log units of each other in “soluble fraction (log2)” value: 0.0966 for the first, 0.000391 for the second.

Going from “HMTVDYDKFTKDTVVQHNKFGKGVIIMTSGDGEDKIASIAFQGLGVKRFSLAIAASNLKILGKVNED” to “HMTVEVFQSLVQTFREMSPRKAASILEELKRDLAVEILLHMPEDGVAAILARMDPARAARLTEQLALEKD”, the “soluble fraction (log2)” value falls from -0.195 to -0.867.

First: HMTVGEAHLEEVYLKVLKQVEEQGTALIRTTDVETGRPAAGIRRRYMRGTLPDEWVAKFEALPGWTWAPG
Second: HMTVGEKIQKYRKDLDLSQEELGQKLLVSRQTISLWEKDQTVPTIDNLIRLREIFGVSVDEILGF
The “soluble fraction (log2)” value of the first is higher: -0.952 for the first, -1.69 for the second.

“HMTVIARQIPPLVPRMLDGLEAFIKLDVPFEEKERLARVQMLRSSLDRDNLDTAEIFRAVLEAYNIELQY” and “HMTVKKEIAKVKPTPLGWLRVRETPSLNGAEITKVNTGESYDVLDKETGWIKIKVSETVEGWVSDAYIELS” are within 0.2 log units of each other in “soluble fraction (log2)” value: 0.195 for the first, 0.124 for the second.

Going from “HMTVLPTENDAKALVGLNEDEAVKIIEGNGWTYRIGSRDGEQFMLTEDYSTSRLTLGIEKSIVVTATI” to “HMTVLVPNLTGKTLLEAEILLDQAGLKKGDVYSESNKNVPKDHIIRQKPAPNTKIQKGATIDIYRSLGPE”, the “soluble fraction (log2)” value rises from -0.56 to -0.0793.

“HMTVNLPPKQKAAILLMSLPPEVSAQLFKELGPDEVHAITLEISKLPPISPDVRAQVIDEFLHSS” and “HMTVSIGSVIARERRLRGDTQQELAERLGVSKAAVSKWEVGQSIPDVTLLPRIAAYFSLTLDEL” are within 0.2 log units of each other in “soluble fraction (log2)” value: -0.226 for the first, -0.276 for the second.

First: HMTVVLPGESLTVNIIQEGKELGQGVGYLDDGTMVVIEDGRRYIDQTIEVTVTRVLQTVAGRMIFAQLT
Second: HMTWDSFIGYTVTDVQKGYLGEITDVDETTINVLLRVDHKGEELLIPAVEELITEADHEARSLTVSLPEGL
The “soluble fraction (log2)” value of the first is higher: -0.886 for the first, -2.11 for the second.

First: HMTYFIADLIGLQVYTDSGELLGKVDDIYNSGSADIYVVKDELGKQILLPGIKDVIKQIDVDNEKIIVHLI
Second: HMTYIQSNLKFLRNKMNISQEELAKRLFVTHQTVSNHENGKSQPNFEMIEKYASFFNVPFEDLIHKDLSL
The “soluble fraction (log2)” value of the first is lower: -1.62 for the first, -0.309 for the second.

Going from “HMTYNIPEHYQTIDVKEYVRKLVSDGDSDQIGRVEMELTEFETRNLFPVLKVLIYIIDTMRK” to “HMTYQTVRYGSTGSAVRQLQSALNQKGYQLSEDGIFGAKTRAAVRDYQKKNGLLLDGIAGSQTWNHLMS”, the “soluble fraction (log2)” value rises from -1.73 to no less than 0.43.

“HMTYSSESVRYRIKSLIDNETIDEILSDDKIVNILKSQGIDVARRTVAKYREAMGLASSIQRRREKKSA” and “HMVAGGTVSRKLSIETGLPKRKSLIGSWLDQNSVWHNIISVRHRNGYGDGVNYGFYLRSLLTSEGNLAW” are within 0.2 log units of each other in “soluble fraction (log2)” value: -0.0241 for the first, 0.0466 for the second.

Compared with “HMVAGHLQTKKGYYYIVLNMRTDTGARKTKWIATGIPEGGKKNLKQAEELLAKTRYTYEDMVI”, “HMVAPKTEEQQKMFLESIVTKRQAETLIEKYPNIVQDIIDGTDNVDLANLKGIGEHTYNLIKEKVLSNY” is lower in “soluble fraction (log2)” value: 0.0939 for the first, -0.159 for the second.

First: HMVAPPILNITTHIFAEEADLRMVMINGVTRREGDSLGENHRLLEITERGLILIFHNKQYTLDV
Second: HMVAQEVPYSTFVMRLDRNEVDAVKIIDGNEIEGTFKSPNGDLVQFKTLIPYQDTELMPLLKQKGVRISGS
The “soluble fraction (log2)” value of the first is lower: -2.1 for the first, no less than 0.43 for the second.

First: HMVARPVLQIGSTGADVTAIQARLGVSQTGYFGVLTAAAVTNFQRSNGIAASGKVGATTWAKLMQSA
Second: HMVAVSQEEATKMALERVSGASAQDIRIQLEFDDGIQKYEGDIIYNGREYEFEIDANTGTFLEWSEERA
The “soluble fraction (log2)” value of the first is lower: 0.316 for the first, no less than 0.43 for the second.

“HMVDETDVPTFTDMTLEEAQNEAKQRNLKLEITESPSDKEKDTILEQDPEPGKTVASGSTVKLTVSNGEE” and “HMVDFHAAYSILRIAPGASWQEIQAAYEKLNDAWREDRYPQVPFWNEKAAFKRREVEQAYEKLRKFHALRH” are within 0.2 log units of each other in “soluble fraction (log2)” value: 0.138 for the first, 0.0778 for the second.

First: HMVDFVNVVVPVKANYGGEAVVEFLDERLSEFGTEGIYRIELQGETMENPSPDYSQLKAKYHISEIVDRT
Second: HMVDKDFKPLYASLERLDSTSIIEILDSNRIDYRIDQRSGALLVDADQIHQARLSLASAGMPA
The “soluble fraction (log2)” value of the first is higher: -0.375 for the first, -0.844 for the second.

“HMVDLANIDPIASSIKLNGAEADASFNTLEDRRVSVSGSFEENKNYTMEYTFKDYAGGSVTGTLDFKTLA” and “HMVDLAPTEEIIKNLPNNSRSLLIPTLQKIQNAYRYLPSPAMELLSEFLNVTRAEIYGVISFYPSLL” are the same in “soluble fraction (log2)” value: 0.129 for the first, 0.129 for the second.

Compared with “HMVDLLDETLIEFYAFANNLIKDLETNSEKYGGMSQFEKELIFNEQITQYQRKLKIDLQDEVG”, “HMVDPRLRSLTPQERRILEHIAEGLTNRQIAEDMFLAEKTVKNYVTSILDKLGMDSRTQAAVYAATHPT” is higher in “soluble fraction (log2)” value: -1.39 for the first, -0.438 for the second.

Going from “HMVDSTDLIPLLIKVSREKQGNKKLNWGEWLKIPENIYLKQINENIARKVFEDTNDLIDEAVNYINRKRRN” to “HMVDTEVFSRLLRKVLAGDVTSAIRILEELIVGGRELSQFVGDFTWYMRNLLLVKTSDNPEEA”, the “soluble fraction (log2)” value rises from -0.558 to -0.116.

“HMVDYYEILGVSPDASRKDIENAWRKKMREAHPDMGGSEDKAQLLNEAHKVLSDESARAEYDASR” and “HMVELPDLIGKSKRLAFTQLEISGLKIGKIIYEPDLAKDAVLKILYNGKIVKAGEQLPRFATVDLVLG” are within 0.2 log units of each other in “soluble fraction (log2)” value: -0.0915 for the first, -0.0904 for the second.

First: HMVEMIGLQMVGKSGIASTVLRPSGKVRIDGVVYDAVSEDGFIEKGQAVKVLRYETGQVYVEKL
Second: HMVEPIEESISQLSLLLQSLYEDGKSEVSFEELIRSDRSRVSLFLALLFMAQRGNVYLEQEELFGDLRVKN
The “soluble fraction (log2)” value of the first is higher: 0.0132 for the first, -0.4 for the second.

“HMVEREYRLEVPPEAEGKRLDQFLVNQPVQLSRSQVQHLIQNGLVLVNAKTRRSSYRVHTGDIIEMQVPA” and “HMVERQVTVPNLTGLGVADAQRLAQSMELDIEVLGEQESTDARPGAVLQQTPGAGTRAAAGSVVSVLV” are within 0.2 log units of each other in “soluble fraction (log2)” value: -0.088 for the first, -0.179 for the second.
